# Assay results: patent US6528283 (INSTITUTE NATIONAL DE LA SANT ET DE LA RECHERCHE M DICALE, dated 2003)
# Read-outs that look alike come from different tables or passages of the source.
# T1: GAL4 DNA-binding domain alone (empty pAS2-1 vector, negative control bait) (UniProt P04386 1-47, limits assumed)
# T1 chain (looked up): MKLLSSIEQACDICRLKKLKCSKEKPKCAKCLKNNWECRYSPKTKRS
# B1: hD53 interactor (GAL4 activation domain fused to full-length hD53, pACT2hD53) (other)
# chain: ANFNQSGNIADSSLSFTFTNSSNGPNLITTQTNSQALSQPIASSNVHDNFMNNEITASKIDDGNNSKPLSPGWTDQTAYNAFGITTGMFNTTTMDDVYNYLFDDEDTPPNPKKEMEAQAQGLLETEPLQGTDEDAVASADFSSMLSEEEKEELKAELVQLEDEITTLRQVLSAKERHLVEIKQKLGMNLMNELKQNFSKSWHDMQTTTAYKKTHETLSHAGQKATAAFSNVGTAISKKFGDMSYSIRHSISMPAMRNSPTFKSFEERVETTVTSLKTKVGGTNPNGGSFEEVLSSTAHASAQSLAGGSRRTKEEELQC
# B2: mD52(95-185) bait (GAL4 DNA-binding domain fused to the C-terminal half of mD52, pAS2-1mD52(95-185)) (other)
# chain: MKLLSSIEQACDICRLKKLKCSKEKPKCAKCLKNNWECRYSPKTKRSAYKKTSETLSQAGQKASAAFSSVGSVITKKLEDVKNSPTFKSFEEKVENLKSKVGGAKPAGGDFGEVLNSTANATSTMTTEPPPEQMTESP
# notes: range 1-47
# B3: hD52 bait (GAL4 DNA-binding domain fused to full-length hD52, pAS2-1hD52) (other)
# chain: MKLLSSIEQACDICRLKKLKCSKEKPKCAKCLKNNWECRYSPKTKRSMDRGEQGLLRTDPVPEEGEDVAATISATETLSEEEQEELRRELAKVEEEIQTLSQVLAAKEKHLAEIKRKLGINSLQELKQNIAKGWQDVTATSAYKKTSETLSQAGQKASAAFSSVGSVITKKLEDVKNSPTFKSFEEKVENLKSKVGGTKPAGGDFGEVLNSAANASATTTEPLPEKTQESL
# notes: range 1-47; Fusion expressed in yeast; also called pAS2-1D52; full-length hD52 bait
# What was measured:
# [1] = target: T2, mD52 bait (GAL4 DNA-binding domain fused to full-length mD52, pAS2-1mD52) (mouse, UniProt P04386 1-47 (Saccharomyces cerevisiae entry), limits assumed); test: cell-based or functional assay
# [2] = target: hD54+ins2 bait (GAL4 DNA-binding domain fused to hD54+ins2, pAS2-1hD54+ins2) (human, UniProt P04386 1-47 (Saccharomyces cerevisiae entry), limits assumed); test: cell-based or functional assay
# [3] = target: hD53 bait (GAL4 DNA-binding domain fused to full-length hD53, pAS2-1hD53) (human, UniProt P04386 1-47 (Saccharomyces cerevisiae entry), limits assumed); test: cell-based or functional assay
# [4] = target: B3; test: cell-based or functional assay
# [5] = target: T1, GAL4 DNA-binding domain alone (empty …); test: cell-based or functional assay
# [6] = target: hD54-ins2 bait (GAL4 DNA-binding domain fused to hD54-ins2, pAS2-1hD54-ins2) (human, UniProt P04386 1-47 (Saccharomyces cerevisiae entry), limits assumed); test: cell-based or functional assay
# [7] = target: mD52(1-95) bait (GAL4 DNA-binding domain fused to the N-terminal half of mD52, pAS2-1mD52(1-95)) (mouse, UniProt P04386 1-47 (Saccharomyces cerevisiae entry)); test: cell-based or functional assay
# [8] = target: T2, mD52 bait (GAL4 DNA-binding domain …); test: cell-based or functional assay; remark: listed apart in the source
# [9] = target: B2; test: cell-based or functional assay
# [10] = target: B1; test: yeast two-hybrid, quantitative β-galactosidase assay in Y190
# Description: Interactions between baits and interactors were assessed by qualitatively and/or quantitatively determining HIS3 and lacZ reporter gene activity in Y190 co-transfectants. […] For quantitative assessment of interactions, β-galactosidase activity was measured using the substrate o-nitrophenyl β-D-galactopyranoside (ONPG) in liquid cultures (SD/-His-Trp-Leu +35 mM 3-AT) of Y190 co-transfectants.
# [11] = target: eukaryotic initiation factor 4AII library interactor (pAD-GAL4 construct) (human, UniProt P04386 761-881; Q14240 1-407, limits assumed); test: yeast two-hybrid, retransfection of a library interactor in Hf7c
# Description: Transformants were plated onto solid SD/-His-Trp-Leu (incorporating 35 mM 3-AT in the case of Y190 transformants) and incubated for up to 14 days at 30° C. […] Colonies which remained His+, and in the case of Y190 co-transformants, were also lacZ+, were re-streaked onto fresh plates to check that all colonies were of uniform phenotype. After 6 days incubation at 30° C., yeast colonies were directly harvested, and plasmid DNA was isolated and used to transfect XL1 Blue. Mini-preparations of plasmid DNA were performed for at least 5 XL1 Blue colonies per transfection, with the results of restriction digests differentiating potential interactors from bait plasmids. […] Phenotypes of resulting co-transfectants were assayed quantitatively and/or qualitatively as described above.
Binder,"β-galactosidase activity, yeast two-hybrid (Y190) [1]","β-galactosidase activity, yeast two-hybrid (Y190) [2]","β-galactosidase activity, yeast two-hybrid (Y190) [3]","β-galactosidase activity, yeast two-hybrid (Y190) [4]","β-galactosidase activity, yeast two-hybrid (Y190) [5]","β-galactosidase activity, yeast two-hybrid (Y190) [6]","β-galactosidase activity, yeast two-hybrid (Y190) [7]","β-galactosidase activity, yeast two-hybrid (Y190) [8]","β-galactosidase activity, yeast two-hybrid (Y190) [9]",binding result [10],binding result [11]
B1,6.07 β-galactosidase activity units (positive control = 1000),11.7 β-galactosidase activity units (positive control = 1000),18.1 β-galactosidase activity units (positive control = 1000),15.2 β-galactosidase activity units (positive control = 1000),0 β-galactosidase activity units (positive control = 1000),17.6 β-galactosidase activity units (positive control = 1000),6.95 β-galactosidase activity units (positive control = 1000),5.44 β-galactosidase activity units (positive control = 1000),0.5 β-galactosidase activity units (positive control = 1000),,
B2,,,,,,,,,,no binding,no binding
B3,,,,,,,,,,,no binding
